# From patent US20070202116A1, “Treatment of micro-organism infection” (priority 2001, published 2007)
# Where two headings read alike, the source gives them in different places.
# Key:
# [1] = system: EMRSA strains, vancomycin resistant subpopulations, Linzolid resistant strains; assay: Checkerboard MIC / FIC / FIX of vancomycin and Aurograb (Tables 9, 10); assay type: cell-based, S. aureus; conditions: for MIC In combination: VAN with Aurograb
# Description: In order to determine the Minimum Inhibitory Concentration (MIC), the Fractional Inhibitory Concentration (FIC) and the FIX (fractional inhibitory index), the following was method was used.
# The cells were diluted in Isosensitest Broth (Oxoid, UK) to give a final inoculum of […] cells per mL. […] To this was added exogenous Aurograb in the range 0.3-25 μg/ml in a checkerboard formation. A negative control series was also prepared containing Aurograb formulation buffer alone. Cultures were incubated for 48 hours at 37° C.
# The minimum inhibitory concentration (MIC) was defined as the lowest concentration of agent at which no bacterial growth occurred and was determined by spectrophotometric evaluation of the lack of turbidity (growth) in culture.
# Fractional inhibitory concentrations (FIC) and FIX values were calculated. Synergistic activity between the two agents was defined as an FIX value ≦0.5. Indifferent activity was defined as a value of 0.5-4, and a value of ≧4 defined antagonism.
# The MIC (Alone) column indicates the minimum inhibitory concentration of the agent when administered alone. The MIC (In combination) column indicates the minimum inhibitory concentration of each drug when used in combination.
# EMRSA-15 [2] = assay type: in vivo, S. aureus
# Description: Methods: 60 female CD-1 mice (22-24 g) were given 1×10^7 cfu of EMRSA-15 as a 100 μl iv bolus.
# All mice were terminated at 48 hours for culture of kidney, liver and spleen.
# Results: expressed as log cfu per gram of tissue, unless the majority of mice (>5) were cleared (ie organs were culture-negative). N/A=not applicable. (Table 7)
# EMRSA-15 [3] = assay type: in vivo, S. aureus; remark: listed apart in the source
# Description: Method: 60 female CD-I mice (22-24 g) were given S. aureus (a fresh clinical isolate of EMRSA-15) at a dose of 8×10^7 cfu in a 100 μl iv bolus.
# All mice were terminated at 48 hours for culture of kidney, liver and spleen. Mice fatalities prior to the 48 hour cull were not subject to organ colony counts.
# [4] = Group 4: Aurograb 2.0 mg/kg alone iv, 48 hours
# [5] = Group 5: Aurograb 0.2 mg/kg alone iv, 10 mice
# [6] = Group 5: Aurograb 0.2 mg/kg alone iv, 48 hours
# [7] = Group 5: Aurograb 2.0 mg/kg alone iv, 48 hours
molecule,measurement,setting,value
"Aurograb: human genetic recombinant antibody (scFv with histidine tag, SEQ ID NO: 2) binding GrfA, a staphylococcal ABC transporter protein (protein, histidine tag; human single chain (scFv) recombinant antibody) scFv: MAKVQLLQSATEVKKPGASVKVSCKAYGYTFTDYGITWVRQAPGQGLEWMGWISAYNGYTNYAQKFQDRITMTTDASTSTAYMELRSLRPDDTAVLYCARDREDASLLRDGHWGQGTLVTVSSGGGGSGGGGSGGGGSGGGGSETTLTQSPGTLSLSPGERATLSCRASQIVSSSYLAWYQQKPGQAPRLLIYGASSRATGIPDRFSGSGSGTDFTLTISKLEPEDFAVYYCQHYGSSSPWTSRPRDQSDIKRAAALEHHHHHH",FIC,[1]; EMRSA strain 1,0.006
same,MIC Alone,[1]; EMRSA strain 1,125 µg/mL
same,MIC In combination,[1]; EMRSA strain 1,0.75 µg/mL
same,FIC,[1]; EMRSA strain 1A,0.05
same,MIC Alone,[1]; EMRSA strain 1A,250 µg/mL
same,MIC In combination,[1]; EMRSA strain 1A,12.5 µg/mL
same,FIC,[1]; EMRSA strain 2,0.006
same,MIC Alone,[1]; EMRSA strain 2,125 µg/mL
same,MIC In combination,[1]; EMRSA strain 2,0.75 µg/mL
same,FIC,[1]; EMRSA strain 2A,0.05
same,MIC Alone,[1]; EMRSA strain 2A,250 µg/mL
same,MIC In combination,[1]; EMRSA strain 2A,12.5 µg/mL
same,FIC,[1]; EMRSA strain 3,0.012
same,MIC Alone,[1]; EMRSA strain 3,250 µg/mL
same,MIC In combination,[1]; EMRSA strain 3,3 µg/mL
same,FIC,[1]; EMRSA strain 4,0.0026
same,MIC Alone,[1]; EMRSA strain 4,125 µg/mL
same,MIC In combination,[1]; EMRSA strain 4,0.325 µg/mL
same,FIC,[1]; EMRSA strain 5,0.001
same,MIC Alone,[1]; EMRSA strain 5,250 µg/mL
same,MIC In combination,[1]; EMRSA strain 5,0.325 µg/mL
same,FIC,[1]; EMRSA strain 6,0.0026
same,MIC Alone,[1]; EMRSA strain 6,125 µg/mL
same,MIC In combination,[1]; EMRSA strain 6,0.325 µg/mL
same,FIC,[1]; EMRSA strain 7,0.0026
same,MIC Alone,[1]; EMRSA strain 7,125 µg/mL
same,MIC In combination,[1]; EMRSA strain 7,0.325 µg/mL
same,FIC,[1]; EMRSA strain 8,0.0013
same,MIC Alone,[1]; EMRSA strain 8,250 µg/mL
same,MIC In combination,[1]; EMRSA strain 8,0.325 µg/mL
same,FIC,[1]; EMRSA strain 8A,0.05
same,MIC Alone,[1]; EMRSA strain 8A,250 µg/mL
same,MIC In combination,[1]; EMRSA strain 8A,12.5 µg/mL
same,FIC,[1]; EMRSA strain 9,0.006
same,MIC Alone,[1]; EMRSA strain 9,125 µg/mL
same,MIC In combination,[1]; EMRSA strain 9,0.75 µg/mL
same,FIC,[1]; EMRSA strain 10,0.012
same,MIC Alone,[1]; EMRSA strain 10,125 µg/mL
same,MIC In combination,[1]; EMRSA strain 10,1.5 µg/mL
same,FIC,[1]; EMRSA strain 11,0.006
same,MIC Alone,[1]; EMRSA strain 11,125 µg/mL
same,MIC In combination,[1]; EMRSA strain 11,0.75 µg/mL
same,FIC,[1]; EMRSA strain 11A,0.05
same,MIC Alone,[1]; EMRSA strain 11A,250 µg/mL
same,MIC In combination,[1]; EMRSA strain 11A,12.5 µg/mL
same,FIC,[1]; EMRSA strain 12,0.0013
same,MIC Alone,[1]; EMRSA strain 12,250 µg/mL
same,MIC In combination,[1]; EMRSA strain 12,0.325 µg/mL
same,FIC,[1]; EMRSA strain 12A,0.003
same,MIC Alone,[1]; EMRSA strain 12A,250 µg/mL
same,MIC In combination,[1]; EMRSA strain 12A,0.75 µg/mL
same,FIC,[1]; EMRSA strain 13,0.006
same,MIC Alone,[1]; EMRSA strain 13,250 µg/mL
same,MIC In combination,[1]; EMRSA strain 13,1.5 µg/mL
same,FIC,[1]; EMRSA strain 14,0.012
same,MIC Alone,[1]; EMRSA strain 14,125 µg/mL
same,MIC In combination,[1]; EMRSA strain 14,1.5 µg/mL
same,FIC,[1]; EMRSA strain 15,0.012
same,MIC Alone,[1]; EMRSA strain 15,125 µg/mL
same,MIC In combination,[1]; EMRSA strain 15,1.5 µg/mL
same,FIC,[1]; EMRSA strain 15A,0.006
same,MIC Alone,[1]; EMRSA strain 15A,250 µg/mL
same,MIC In combination,[1]; EMRSA strain 15A,0.75 µg/mL
same,FIC,[1]; EMRSA strain 16,0.012
same,MIC Alone,[1]; EMRSA strain 16,250 µg/mL
same,MIC In combination,[1]; EMRSA strain 16,1.5 µg/mL
same,FIC,[1]; EMRSA strain 17,0.006
same,MIC Alone,[1]; EMRSA strain 17,250 µg/mL
same,MIC In combination,[1]; EMRSA strain 17,0.75 µg/mL
same,FIC,[1]; NARSA 1 (Hiramatsu),0.001
same,MIC Alone,[1]; NARSA 1 (Hiramatsu),250 µg/mL
same,MIC In combination,[1]; NARSA 1 (Hiramatsu),0.325 µg/mL
same,FIC,[1]; NARSA 2 (Hiramatsu),0.001
same,MIC Alone,[1]; NARSA 2 (Hiramatsu),250 µg/mL
same,MIC In combination,[1]; NARSA 2 (Hiramatsu),0.325 µg/mL
same,FIC,[1]; NARSA 12 (France),0.003
same,MIC Alone,[1]; NARSA 12 (France),250 µg/mL
same,MIC In combination,[1]; NARSA 12 (France),0.75 µg/mL
same,FIC,[1]; NARSA 17 (New York),0.001
same,MIC Alone,[1]; NARSA 17 (New York),250 µg/mL
same,MIC In combination,[1]; NARSA 17 (New York),0.325 µg/mL
same,FIC,[1]; NARSA 119 (Linezolid R),0.02
same,MIC Alone,[1]; NARSA 119 (Linezolid R),125 µg/mL
same,MIC In combination,[1]; NARSA 119 (Linezolid R),3 µg/mL
same,FIC,[1]; NARSA 120 (Linezolid R),0.02
same,MIC Alone,[1]; NARSA 120 (Linezolid R),125 µg/mL
same,MIC In combination,[1]; NARSA 120 (Linezolid R),3 µg/mL
same,FIC,[1]; NARSA 121 (Linezolid R),0.02
same,MIC Alone,[1]; NARSA 121 (Linezolid R),125 µg/mL
same,MIC In combination,[1]; NARSA 121 (Linezolid R),3 µg/mL
same,"Spleen, number of mice cleared","EMRSA-15 [2]; Group 4: Aurograb 2.0 mg/kg alone iv, 10 mice",4
same,Kidney Log cfu/g of tissue,EMRSA-15 [2]; [4],7.30 ± 1.26 Log cfu/g of tissue
same,Spleen Log cfu/g of tissue,EMRSA-15 [2]; [4],3.54 ± 0.61 Log cfu/g of tissue
same,"Liver, number of mice cleared",EMRSA-15 [2]; [5],2
same,"Spleen, number of mice cleared",EMRSA-15 [2]; [5],3
same,Kidney Log cfu/g of tissue,EMRSA-15 [2]; [6],7.50 ± 1.53 Log cfu/g of tissue
same,Liver Log cfu/g of tissue,EMRSA-15 [2]; [6],4.28 ± 1.28 Log cfu/g of tissue
same,Spleen Log cfu/g of tissue,EMRSA-15 [2]; [6],3.91 ± 0.87 Log cfu/g of tissue
same,Mortality,"EMRSA-15 [3]; Aurograb alone 2.0 mg/kg, 10 mice, untreated group 7 deaths",4 deaths
same,Survivors at 24 h (n = 10),"EMRSA-15 [3]; Group 5: Aurograb 2.0 mg/kg alone iv, 8×10^7 cfu",6
same,Kidney Log cfu/g tissue,EMRSA-15 [3]; [7],7.87 ± 1 Log cfu/g tissue
same,Liver Log cfu/g tissue,EMRSA-15 [3]; [7],5.18 ± 0.57 Log cfu/g tissue
same,Spleen Log cfu/g tissue,EMRSA-15 [3]; [7],5.53 ± 2.74 Log cfu/g tissue
